Patent US20250134956A1 (published 2025)

Experiments:
[1] = target: T1, Kita-kyushu lung cancer antigen 1 (CT83, KKLC1, CXorf61) peptide on HLA-A*02 (human); test: binding, other
T1 peptide: KLVELEHTLL

[2] = target: T2, Kita-kyushu lung cancer antigen 1 (CT83, KKLC1, CXorf61) peptide on HLA-A*02 (human); test: binding, other
T2 peptide: RILVNLSMV

B1: TCR of SEQ ID NOs 12 and 13 (TCR, V domains shown)
Valpha: KQEVTQIPAALSVPEGENLVLNCSFTDSAIYNLQWFRQDPGKGLTSLLLIQSSQREQTSGRLNASLDKSSGRSTLYIAASQPGDSATYLCAVMEDSGYALNFGKGTSLLVTP
Vbeta: NAGVTQTPKFQVLKTGQSMTLQCAQDMNHEYMSWYRQDPGMGLRLIHYSVGAGITDKGEVPNGYNVSRLNKREFSLRLESAAPSQTSVYFCASSRTGYYGYTFGSGTRLTVV
binding result [1]: recognises

B2: TCR of SEQ ID NOs 20 and 21 (TCR, V domains shown)
Valpha: KQEVTQIPAALSVPEGENLVLNCSFTDSAIYNLQWFRQDPGKGLTSLLLIQSSQREQTSGRLNASLDKSSGRSTLYIAASQPGDSATYLCAVNELGRLYFGRGTQLTVWP
Vbeta: NAGVTQTPKFQVLKTGQSMTLQCAQDMNHEYMSWYRQDPGMGLRLIHYSVGAGITDQGEVPNGYNVSRSTTEDFPLRLLSAAPSQTSVYFCASSYSGGYTFGSGTRLTVV
binding result [2]: recognises

B3: TCR of SEQ ID NOs 10 and 11 (TCR, V domains shown)
Valpha: KQEVTQIPAALSVPEGENLVLNCSFTDSAIYNLQWFRQDPGKGLTSLLLIQSSQREQTSGRLNASLDKSSGRSTLYIAASQPGDSATYLCAVTTQGGSEKLVFGKGTKLTVNP
Vbeta: NAGVTQTPKFQVLKTGQSMTLQCAQDMNHEYMSWYRQDPGMGLRLIHYSVGAGITDQGEVPNGYNVSRSTTEDFPLRLLSAAPSQTSVYFCASSYSDRGYSPLHFGNGTRLTVT
binding result [1]: recognises

B4: TCR of SEQ ID NOs 14 and 15 (TCR, V domains shown)
Valpha: KQEVTQIPAALSVPEGENLVLNCSFTDSAIYNLQWFRQDPGKGLTSLLLIQSSQREQTSGRLNASLDKSSGRSTLYIAASQPGDSATYLCAVGGEETSGSRLTFGEGTQLTVNP
Vbeta: NAGVTQTPKFQVLKTGQSMTLQCAQDMNHEYMSWYRQDPGMGLRLIHYSVGAGITDQGEVPNGYNVSRSTTEDFPLRLLSAAPSQTSVYFCASSYSDRGYSPLHFGNGTRLTVT
binding result [1]: recognises

B5: TCR of SEQ ID NOs 16 and 17 (TCR, V domains shown)
Valpha: KQEVTQIPAALSVPEGENLVLNCSFTDSAIYNLQWFRQDPGKGLTSLLLIQSSQREQTSGRLNASLDKSSGRSTLYIAASQPGDSATYLCAVSGNTPLVFGKGTRLSVIA
Vbeta: NAGVTQTPKFRVLKTGQSMTLLCAQDMNHEYMYWYRQDPGMGLRLIHYSVGEGTTAKGEVPDGYNVSRLKKQNFLLGLESAAPSQTSVYFCASSYVGNTEAFFGQGTRLTVV
binding result [2]: recognises

B6: TCR of SEQ ID NOs 18 and 19 (TCR, V domains shown)
Valpha: KQEVTQIPAALSVPEGENLVLNCSFTDSAIYNLQWFRQDPGKGLTSLLLIQSSQREQTSGRLNASLDKSSGRSTLYIAASQPGDSATYLCAPSGNTPLVFGKGTRLSVIA
Vbeta: NAGVTQTPKFRVLKTGQSMTLLCAQDMNHEYMYWYRQDPGMGLRLIHYSVGEGTTAKGEVPDGYNVSRLKKQNFLLGLESAAPSQTSVYFCASSFLGNTEAFFGQGTRLTVV
binding result [2]: recognises
